This is an account of results in paper PMC2851401 (Journal of molecular biology, 2010).

Test [1] concerns the target Rev (Human immunodeficiency virus 1) (UniProt P04325). As to conditions: cited from earlier work.
In test [2] the target is biotinylated HIV-1 Rev with C-terminal Avitag (HIV-1, UniProt P04616). The experiment in a line: ELISA. (In an ELISA, binding on a coated surface is turned into a signal by an enzyme label.)
Chain of biotinylated HIV-1 Rev with C-terminal Avitag (P04616 whole entry): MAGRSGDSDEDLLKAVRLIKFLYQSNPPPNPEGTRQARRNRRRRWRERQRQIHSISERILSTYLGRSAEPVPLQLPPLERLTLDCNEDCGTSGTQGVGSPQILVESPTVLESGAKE

Consider Rev (from UniProt P04325), for which the Kd in test [1] is 1000 nM.

B1: chimeric rabbit/human Fab SJS-R1 as the selected phage display clone in pC3C (Fab, V domains shown)
VH: QEQLVESGGRLVTPGTALTLTCKVSGFSLSGFWLNWVRQAPGKGLEWVGAIYRGSGSEWYASWAKGRFTISDTSTTVTLKLTSPTTEDTATYFCAADTTDNGYFTIWGPGTLVTVSS
VL: ELVMTQTPSSVSEPVGGTVTIKCQASQSISSWLSWYQQKPGQPPKLLIYDASNLASGVPSRFMGSGSGTEYTLTISGVQREDAATYYCLGGYPAASYRTAFGGGTELEII
In the case of B1, the binding result in test [2] is “binds”.

A word on the Kd: it is a measure of binding affinity in units of concentration.
